Experimental data taken from patent US20230228751 (APTAMER DIAGNOSTICS LIMITED, published 2023).
Where a chain is given by its changes, count along the chain named.

B1: S2_A2 (ssDNA)
DNA: CCAGTGTAGACTACTCAATGCCGATGGGTCGGGGGGGTGGGTAGGCATTGATCGCTCCTTTCGTACTATCCACAGGTCAACC
B2: S2_A2_F12 (ssDNA)
DNA: CCAGTGTAGACTACTCAATGCCGATGGGTCGGGGGGGTGGGTAGGCATTGATCGCTCCTTTCGT
B3: S2_G1 (ssDNA)
DNA: CCAGTGTAGACTACTCAATGCGGCTGTGTGACTTGACCTCTGGATATGGGTGGGAGGGATGGGTACTATCCACAGGTCAACC
B4: S2_B1_F12 (ssDNA)
DNA: CCAGTGTAGACTACTCAATGCCGTGGACTGGTCGGGTTTGGATTCGGCAGATGAATCAGTAGTA
B5: S2_B1 (ssDNA)
DNA: CCAGTGTAGACTACTCAATGCCGTGGACTGGTCGGGTTTGGATTCGGCAGATGAATCAGTAGTACTATCCACAGGTCAACC
B6: S1_A3-A (ssDNA)
DNA: CCAGTGTAGACTACTCAATGCGTGGGAAGGGTGGGTGGGAGCATTGATAACTCGGAGGAGTGTACTATCCACAGGTCAACC
B7: S1_C3-B (ssDNA)
DNA: B1 DNA with T61C
B8: S1_E2 (ssDNA)
DNA: B3 DNA with G23T, C24G, T27G, G28T, T29G, G30A, A31C, A59G, T60C
B9: S1_C12 (ssDNA)
DNA: B6 DNA with T61C
B10: S1_F3-B (ssDNA)
DNA: B6 DNA with A28T, T61C
B11: S1_F12 (ssDNA)
DNA: B6 DNA with T32A, T36C, T61C
B12: S1_E10 (ssDNA)
DNA: CCAGTGTAGACTACTCAATGCTGTGTTGACTTGACCTTGGATTATGGGTTTGGGCGGGAGGGTACTATCCACAGGTCAACC
B13: S1_C4 (ssDNA)
DNA: CCAGTGTAGACTACTCAATGCTACTGATTCATCTGCCGAATCCAAACCCGACCAGTCCACGGTACTATCCACAGGTCAACC
B14: S1_D1 (ssDNA)
DNA: CCAGTGTAGACTACTCAATGCATTCCTTTTGCTACCTATATTCCGTCTCCAGCATAATCCCGTACTATCCACAGGTCAACC
B15: S1_D4 (ssDNA)
DNA: CCAGTGTAGACTACTCAATGCGGCTTCGGGAGGGGGGGCGGGTAAAAAGCCCATTGCCCTAGTACTATCCACAGGTCAACC
B16: S1_E9 (ssDNA)
DNA: B15 DNA with G29A, C50T
B17: S1_F11 (ssDNA)
DNA: CCAGTGTAGACTACTCAATGCGTGGGAAGGGTGGGCGGGAGCATTGATAACTTCGGAGGAGCGTACTATCCACAGGTCAACC
B18: S1_F3-A (ssDNA)
DNA: CCAGTGTAGACTACTCAATGCGGTATGAATATGATCGGCCCTATCCCTTCAGCTATTCCGGGTACTATCCACAGGTCAACC
B19: S1_C11 (ssDNA)
DNA: CCAGTGTAGACTACTCAATGCCGTGGACTGGTCGGGTTTGGATTCGGCAGATGAATCCAGTAGTACTATCCACAGGTCAACC
B20: S1_D8 (ssDNA)
DNA: B5 DNA with C2A, A3G, G4T, T5G, G6T, T7A
B21: S1_F5 (ssDNA)
DNA: CCAGTGTAGACTACTCAATGCGTGTGGTAACCTTGACCTTGGATTATGGGTTTGGGCGGGCGGGTACTATCCACAGGTCAACC
B22: S1_D2 (ssDNA)
DNA: CCAGTGTAGACTACTCAATGCTAGGTCCGTGGGATGGGTGGGGGGGAGGACCAGCCAGCGAGTACTATCCACAGGTCAACC
B23: S1_A6 (ssDNA)
DNA: B12 DNA with G25T, T26A, A41G
B24: S1_F2 (ssDNA)
DNA: CCAGTGTAGACTACTCAATGCTGCGTTGACTTGATCCTGTGGTATATGGGTGGGAGGGTCGGGTACTATCCACAGGTCAACC
B25: S1_A8 (ssDNA)
DNA: B24 DNA with C24T

molecular target: SARS-CoV-2 spike S2 subunit (SARS-CoV-2, UniProt P0DTC2 SEQ:1-528); experiment: BLI; conditions: label: 5'-biotin

Does B1 bind?
Result: binds

Does B2 bind?
Result: binds

Does B3 bind?
Result: binds

Does B4 bind?
Result: binds

Does TTGACCTCTGGATATGGGTGGGAGGGATGGGT (ssDNA) [S2_G1_F21] bind?
Result: binds

Does B5 bind?
Result: binds

molecular target: SARS-CoV-2 spike protein trimer (SARS-CoV-2, UniProt P0DTC2); experiment: ELONA; conditions: not given
Protocol: One ELONA plate (immobilised with the S1 binding aptamer A3) was then incubated with a fixed concentration (0.5 μM) of either the aptamer population isolated against the S2 subunit of the SARS-CoV-2 spike protein (S2_8R pool) or full-length aptamer clones S2_A2 (SEQ ID NO: 146), S2_B1 (SEQ ID NO: 150) and S2_G1 (SEQ ID NO: 171) (FIG. 16).

Does B1 bind?
Result: binds

Does B3 bind?
Result: binds

Does B5 bind?
Result: binds

same assay, conditions: label: 5' biotin

Does B6 bind?
Result: binds

molecular target: SARS-CoV spike S1 subunit (SARS-CoV, UniProt P59594 SEQ:14-667); experiment: BLI; conditions: tags: SinoBiological; label: 5' biotin

Does B7 bind?
Result: no binding

Does B8 bind?
Result: no binding

Does B9 bind?
Result: no binding

Does B10 bind?
Result: no binding

Does B11 bind?
Result: no binding

Does B12 bind?
Result: no binding

Does B13 bind?
Result: no binding

Does B14 bind?
Result: no binding

Does B15 bind?
Result: no binding

Does B16 bind?
Result: no binding

Does B17 bind?
Result: no binding

Does B18 bind?
Result: no binding

Does B19 bind?
Result: no binding

Does B20 bind?
Result: no binding

Does B21 bind?
Result: no binding

Does B22 bind?
Result: no binding

same assay, conditions: tags: SinoBiological; label: 5'-biotin

Does B6 bind?
Result: no binding

Does B23 bind?
Result: no binding

Does B24 bind?
Result: no binding

Does B25 bind?
Result: no binding

molecular target: SARS-CoV-2 spike RBD (SARS-CoV-2, UniProt P0DTC2 SEQ:1-223); experiment: BLI; conditions: tags: His tag, SinoBiological 40592-V08H; label: 5'-biotin

Does B6 bind?
Result: binds

Does B23 bind?
Result: binds

Does B24 bind?
Result: binds

Does B25 bind?
Result: binds

same assay, conditions: tags: His tag; SinoBiological 40592-V08H; label: 5' biotin

Does B7 bind?
Result: binds

Does B8 bind?
Result: binds

Does B9 bind?
Result: binds

Does B10 bind?
Result: binds

Does B11 bind?
Result: binds

Does B12 bind?
Result: binds

Does B13 bind?
Result: binds

Does B14 bind?
Result: binds

Does B15 bind?
Result: binds

Does B16 bind?
Result: binds

Does B17 bind?
Result: binds

Does B18 bind?
Result: binds

Does B19 bind?
Result: binds

Does B20 bind?
Result: binds

Does B21 bind?
Result: binds

Does B22 bind?
Result: binds

molecular target: T1, SARS-CoV-2 spike S1 subunit (SARS-CoV-2, UniProt P0DTC2 SEQ:1-670); experiment: BLI; conditions: tags: His tag, SinoBiological 40591-V08B1; label: 5'-biotin

Does B7 bind?
Result: binds

Does B8 bind?
Result: binds

Does B9 bind?
Result: binds

Does B10 bind?
Result: binds

Does B11 bind?
Result: binds

Does B12 bind?
Result: binds

Does B13 bind?
Result: binds

Does B14 bind?
Result: binds

Does B15 bind?
Result: binds

Does B16 bind?
Result: binds

Does B17 bind?
Result: binds

Does B18 bind?
Result: binds

Does B19 bind?
Result: binds

Does B20 bind?
Result: binds

Does B21 bind?
Result: binds

Does B22 bind?
Result: binds

molecular target: T1, SARS-CoV-2 spike S1 subunit; experiment: BLI; conditions: tags: His tag, SinoBiological 40591-V08B1; label: 5'-biotin; remark: another data set of the same source
Protocol: The affinity of four chosen aptamers (aptamer S1_A3-A (SEQ ID NO: 4); aptamer S1_A6 (SEQ ID NO: 8); aptamer S1_A8 (SEQ ID NO: 9); aptamer S1_F2 (SEQ ID NO: 43)) was determined using the BLI assay according to the protocol described above. The biotinylated aptamers were immobilised onto streptavidin biosensor probes (as described above) and then interaction monitored with a concentration series of SARS-CoV-2 Spike protein S1 (250 nM, 125 nM, 62.5 nM, 31.25 nM, 15.63 nM, 7.81 nM, 0 nM diluted in 1× ‘high salt’ aptamer selection buffer). KD values were calculated using the ForteBio software (ForteBio Data Analysis 8.0,), using a 2:1 binding model (FIGS. 6 & 7).

Does B6 bind?
Result: binds

Does B23 bind?
Result: binds

Does B24 bind?
Result: binds

Does B25 bind?
Result: binds
